Columns and labels:
食蟹猴TSLP = 食蟹猴TSLP (cynomolgus monkey (食蟹猴), UniProt A0A7N9CAT7 29-159); assay: cell-based or functional assay
[1] = molecular target: T1, 人胸腺基质淋巴细胞生成素 (Human Thymic Stromal Lymphopoietin, TSLP) (human, UniProt Q969D9 29-159); assay: cell-based or functional assay
[2] = molecular target: T1, 人胸腺基质淋巴细胞生成素 (Human Thymic Stromal …); assay: SPR, Biacore T200, 25°C, antibody captured on Protein A chip, human TSLP as analyte, 1:1 model, mean of three runs

Chain of 食蟹猴TSLP (A0A7N9CAT7 entry or part of it): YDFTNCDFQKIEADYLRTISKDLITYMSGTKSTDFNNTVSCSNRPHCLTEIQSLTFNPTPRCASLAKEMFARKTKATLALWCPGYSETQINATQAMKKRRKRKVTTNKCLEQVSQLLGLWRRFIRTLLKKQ

B1: Tezepelumab (antibody, V domains shown)
VH: QMQLVESGGGVVQPGRSLRLSCAASGFTFRTYGMHWVRQAPGKGLEWVAVIWYDGSNKHYADSVKGRFTITRDNSKNTLNLQMNSLRAEDTAVYYCARAPQWELVHEAFDIWGQGTMVTVSS
VL: SYVLTQPPSVSVAPGQTARITCGGNNLGSKSVHWYQQKPGQAPVLVVYDDSDRPSWIPERFSGSNSGNTATLTISRGEAGDEADYYCQVWDSSSDHVVFGGGTKLTVLG
抑制食蟹猴TSLP诱导的SW756-STAT5-Luciferase报告基因细胞STAT5磷酸化活性的IC50 (食蟹猴TSLP): 1.88 ng/mL

B2: QX008N (HZD8G2-57) (antibody, V domains shown)
VH: EVQLVESGGGLVQPGGSLRLSCAASGFSLSSYYMSWVRQAPGKGLEWVGFISYGGSAYHATWAQGRFTISKDNSKNTLYLQMNSLRAEDTAVYYCAREFRSMTYGAEWGIWGQGTLVTVSS
VL: AYQMTQSPSSVSASVGDRVTITCQASESIYDTLAWYQQKPGKAPKLLIYSASSLASGVPSRFSGSGSGTDFTLTISSLQPEDFATYYCQQGYTMPDVDKNPFGGGTKVEIKR
抑制食蟹猴TSLP诱导的SW756-STAT5-Luciferase报告基因细胞STAT5磷酸化活性的IC50 (食蟹猴TSLP): 0.889 ng/mL | 抑制人TSLP诱导的PBMC细胞释放TARC(CCL17)活性的IC50 [1]: 77.1 ng/mL | 抑制人TSLP诱导的SW756-STAT5-Luciferase报告基因细胞STAT5磷酸化活性的IC50 [1]: 0.837 ng/mL | 抑制人TSLP诱导的全血释放TARC(CCL17)活性的IC50 [1]: 0.839 ng/mL | Kd [2]: 0.0175 nM | koff [2]: 2.99e-05 s⁻¹ | kon [2]: 1.74e+06 M⁻¹ s⁻¹

Reference: patent CN114605536A (JIANGSU QUANXIN BIOMEDICINE CO LTD, dated 2022)
